The source of these data is the Immune Epitope Database (IEDB).

Targets include HLA-B*51:01; HLA-A*68:02; HLA-A*01:01; HLA-B*14:02; HLA-A*02:12; HLA-B*40:01; HLA-A*03:01; HLA-B*08:01.
Assay in all cases: IEDB peptide-MHC binding, purified MHC/competitive/fluorescence; filed as Kd, often an IC50 or EC50 that approximates it; ≥ and ≤ were set here for values at or beyond the usual limits of such assays
Common to all, as to conditions: source organism: Entamoeba histolytica HM-1:IMSS

For orientation: Kd means a measure of binding affinity in units of concentration. A low value points to a tighter complex. For EVRKAIEFV, the dissociation constant (Kd) was at least 20 µM with HLA-B*51:01; at most 0.001 µM with HLA-A*68:02; at least 5 µM with HLA-A*01:01; at least 5 µM with HLA-B*14:02; at least 20 µM with HLA-A*02:12; at least 5 µM with HLA-B*40:01. For the same sequence, the results for the Kd in the experiment with HLA-A*03:01 and in the experiment with HLA-B*08:01 were at least 20 µM and at least 5 µM, respectively.
